According to patent publication US20240083959A1 (published 2024):
Each block holds one binder with its values, some of them ahead of it.

Tests used:
[1] = biological target: T1, recombinant human LPHN2 lectin-olfactomedin-like domain, residues F26-P394 (human, UniProt O95490 26-394); experiment: solid-phase binding (ELISA)
T1 chain: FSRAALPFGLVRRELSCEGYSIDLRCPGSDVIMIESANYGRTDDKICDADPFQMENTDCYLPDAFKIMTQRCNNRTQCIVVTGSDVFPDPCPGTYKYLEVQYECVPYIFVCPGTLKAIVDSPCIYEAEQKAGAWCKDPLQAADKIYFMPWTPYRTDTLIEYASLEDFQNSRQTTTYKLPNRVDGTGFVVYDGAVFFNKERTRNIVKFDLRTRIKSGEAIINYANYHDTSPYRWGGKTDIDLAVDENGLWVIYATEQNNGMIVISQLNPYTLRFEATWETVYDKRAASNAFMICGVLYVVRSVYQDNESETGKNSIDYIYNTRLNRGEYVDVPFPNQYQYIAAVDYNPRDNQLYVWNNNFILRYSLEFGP

LPHN2 Lec = experiment: solid-phase binding (ELISA)

- Kd [1]: 430 nM
B1: deglycosylated LRG1 (LRG1 treated with PNGase F) (ligand)
chain: VTLSPKDCQVFRSDHGSSISCQPPAEIPGYLPADTVHLAVEFFNLTHLPANLLQGASKLQELHLSSNGLESLSPEFLRPVPQLRVLDLTRNALTGLPPGLFQASATLDTLVLKENQLEVLEVSWLHGLKALGHLDLSGNRLRKLPPGLLANFTLLRTLDLGENQLETLPPDLLRGPLQLERLHLEGNKLQVLGKDLLLPQPDLRYLFLNGNKLARVAAGAFQGLRQLDMLDLSNNSLASVPEGLWASLGQPNWDMRDGFDISGNPWICDQNLSDLYRWLQAQKDKMFSQNDTRCAGPEAVKGQTLLAVAKSQ
modifications: N-linked glycans removed with PNGase F (sites N79, N186, N269, N325 on SEQ ID NO: 1)

- Kd (LPHN2 Lec): 1100 nM
B2: DG-LRG1 (ligand)
chain: B1 chain
modifications: N-linked glycans removed with PNGase F (sites N79, N186, N269, N325 on SEQ ID NO: 1)

- Kd [1]: 890 nM
B3: recombinant human LRG1 (leucine-rich alpha-2 glycoprotein 1), residues V36-Q347, untagged, glycosylated (ligand)
chain: B1 chain
modifications: glycosyl groups at T37 (O-linked), N79, N186, N269 and N325 (N-linked), numbered on SEQ ID NO: 1
